Data taken from publication PMC9482650, “Quantitative fragmentomics allow affinity mapping of interactomes” (Nature Communications, 2022).

molecular target: PTPN3, P26045; assay: holdup assay; design: key: below the threshold = too weak to quantify, mostly under pKd 3.1 to 4; conditions: plain residues with an end cap or a label only (N-terminal biotin on a linker: ado-ado)
Sequence (P26045 505-587): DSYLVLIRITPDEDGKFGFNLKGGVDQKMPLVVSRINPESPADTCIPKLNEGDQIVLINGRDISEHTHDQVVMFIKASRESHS

Binder	pKd
PRAEAEDSFL [PDGFRB, P09619]	4.45
FNSYSLTGYV [CLDN2, P57739]	below the threshold

molecular target: T1, APBA3_1, O96018; assay: holdup assay; design: key: below the threshold = too weak to quantify, mostly under pKd 3.1 to 4; conditions: plain residues with an end cap or a label only (N-terminal biotin on a linker: ado-ado)
T1 sequence (O96018 389-490, limits assumed, looked up): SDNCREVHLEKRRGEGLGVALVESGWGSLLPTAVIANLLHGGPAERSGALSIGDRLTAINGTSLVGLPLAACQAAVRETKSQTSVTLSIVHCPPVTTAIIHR

Binder	pKd
PRAEAEDSFL [PDGFRB, P09619]	below the threshold
FNSYSLTGYV [CLDN2, P57739]	below the threshold

molecular target: PARD3_3, Q8TEW0; assay: holdup assay; design: key: below the threshold = too weak to quantify, mostly under pKd 3.1 to 4; conditions: plain residues with an end cap or a label only (N-terminal biotin on a linker: ado-ado)
Sequence (Q8TEW0 582-685): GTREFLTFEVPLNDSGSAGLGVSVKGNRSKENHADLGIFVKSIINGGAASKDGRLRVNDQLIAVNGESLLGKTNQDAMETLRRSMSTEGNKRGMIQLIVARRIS

Binder	pKd
PRAEAEDSFL [PDGFRB, P09619]	4.11
FNSYSLTGYV [CLDN2, P57739]	4.04

molecular target: PDLIM1, O00151; assay: holdup assay; design: key: below the threshold = too weak to quantify, mostly under pKd 3.1 to 4; conditions: plain residues with an end cap or a label only (N-terminal biotin on a linker: ado-ado)
Sequence (O00151 1-87): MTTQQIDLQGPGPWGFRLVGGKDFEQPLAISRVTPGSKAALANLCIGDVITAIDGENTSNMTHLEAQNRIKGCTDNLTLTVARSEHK

Binder	pKd
PRAEAEDSFL [PDGFRB, P09619]	3.54
FNSYSLTGYV [CLDN2, P57739]	below the threshold

molecular target: T2, LRRC7, Q96NW7; assay: holdup assay; design: key: below the threshold = too weak to quantify, mostly under pKd 3.1 to 4; conditions: plain residues with an end cap or a label only (N-terminal biotin on a linker: ado-ado)
T2 sequence (Q96NW7 1440-1537, limits assumed, looked up): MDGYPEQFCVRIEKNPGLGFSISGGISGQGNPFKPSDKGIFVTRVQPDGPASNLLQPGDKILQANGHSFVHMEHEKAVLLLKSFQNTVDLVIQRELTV

Binder	pKd
PRAEAEDSFL [PDGFRB, P09619]	3.92
FNSYSLTGYV [CLDN2, P57739]	below the threshold

molecular target: MAGI2_4, Q86UL8; assay: holdup assay; design: key: below the threshold = too weak to quantify, mostly under pKd 3.1 to 4; conditions: plain residues with an end cap or a label only (N-terminal biotin on a linker: ado-ado)
Sequence (Q86UL8 772-865): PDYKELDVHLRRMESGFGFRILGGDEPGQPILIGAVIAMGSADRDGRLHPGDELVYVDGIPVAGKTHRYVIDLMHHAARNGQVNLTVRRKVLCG

Binder	pKd
PRAEAEDSFL [PDGFRB, P09619]	3.6
FNSYSLTGYV [CLDN2, P57739]	4.24

molecular target: LDB3, O75112; assay: holdup assay; design: key: below the threshold = too weak to quantify, mostly under pKd 3.1 to 4; conditions: plain residues with an end cap or a label only (N-terminal biotin on a linker: ado-ado)
Sequence (O75112 1-94): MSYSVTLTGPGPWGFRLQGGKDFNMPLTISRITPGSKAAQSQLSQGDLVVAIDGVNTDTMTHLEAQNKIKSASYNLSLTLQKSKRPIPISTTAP

Binder	pKd
PRAEAEDSFL [PDGFRB, P09619]	3.67
FNSYSLTGYV [CLDN2, P57739]	below the threshold

molecular target: NHERF4_2, Q86UT5; assay: holdup assay; design: key: below the threshold = too weak to quantify, mostly under pKd 3.1 to 4; conditions: plain residues with an end cap or a label only (N-terminal biotin on a linker: ado-ado)
Sequence (Q86UT5 220-308): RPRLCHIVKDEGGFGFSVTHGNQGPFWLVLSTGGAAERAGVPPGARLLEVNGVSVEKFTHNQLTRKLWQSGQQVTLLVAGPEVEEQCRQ

Binder	pKd
PRAEAEDSFL [PDGFRB, P09619]	3.66
FNSYSLTGYV [CLDN2, P57739]	below the threshold

molecular target: T3, TJP3_3, O95049; assay: holdup assay; design: key: below the threshold = too weak to quantify, mostly under pKd 3.1 to 4; conditions: plain residues with an end cap or a label only (N-terminal biotin on a linker: ado-ado)
T3 sequence (O95049 375-456, limits assumed, looked up): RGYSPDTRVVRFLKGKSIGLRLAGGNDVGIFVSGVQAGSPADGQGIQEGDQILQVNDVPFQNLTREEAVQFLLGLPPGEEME

Binder	pKd
PRAEAEDSFL [PDGFRB, P09619]	3.49
FNSYSLTGYV [CLDN2, P57739]	4.31

molecular target: AHNAK1, Q09666; assay: holdup assay; design: key: below the threshold = too weak to quantify, mostly under pKd 3.1 to 4; conditions: plain residues with an end cap or a label only (N-terminal biotin on a linker: ado-ado)
Sequence (Q09666 4-100): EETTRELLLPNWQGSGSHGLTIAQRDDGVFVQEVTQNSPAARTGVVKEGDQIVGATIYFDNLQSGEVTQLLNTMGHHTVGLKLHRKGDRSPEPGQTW

Binder	pKd
PRAEAEDSFL [PDGFRB, P09619]	below the threshold
FNSYSLTGYV [CLDN2, P57739]	below the threshold

molecular target: Inadl_4, Q8NI35; assay: holdup assay; design: key: below the threshold = too weak to quantify, mostly under pKd 3.1 to 4; conditions: plain residues with an end cap or a label only (N-terminal biotin on a linker: ado-ado)
Sequence (Q8NI35 547-651): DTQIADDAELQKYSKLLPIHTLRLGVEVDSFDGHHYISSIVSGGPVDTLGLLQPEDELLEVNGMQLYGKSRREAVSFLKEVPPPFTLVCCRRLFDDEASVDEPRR

Binder	pKd
PRAEAEDSFL [PDGFRB, P09619]	below the threshold
FNSYSLTGYV [CLDN2, P57739]	below the threshold

molecular target: T4, DLG3_3, Q92796; assay: holdup assay; design: key: below the threshold = too weak to quantify, mostly under pKd 3.1 to 4; conditions: plain residues with an end cap or a label only (N-terminal biotin on a linker: ado-ado)
T4 sequence (Q92796 374-475, limits assumed, looked up): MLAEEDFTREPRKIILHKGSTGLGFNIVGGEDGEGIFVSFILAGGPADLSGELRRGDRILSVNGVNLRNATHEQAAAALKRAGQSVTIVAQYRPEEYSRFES

Binder	pKd
PRAEAEDSFL [PDGFRB, P09619]	below the threshold
FNSYSLTGYV [CLDN2, P57739]	below the threshold

molecular target: T5, LNX2_3, Q8N448; assay: holdup assay; design: key: below the threshold = too weak to quantify, mostly under pKd 3.1 to 4; conditions: plain residues with an end cap or a label only (N-terminal biotin on a linker: ado-ado)
T5 sequence (Q8N448 463-564, limits assumed, looked up): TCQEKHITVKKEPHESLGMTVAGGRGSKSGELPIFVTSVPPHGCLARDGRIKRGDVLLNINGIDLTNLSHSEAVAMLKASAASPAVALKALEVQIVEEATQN

Binder	pKd
PRAEAEDSFL [PDGFRB, P09619]	3.54
FNSYSLTGYV [CLDN2, P57739]	below the threshold

molecular target: Inadl_2, Q8NI35; assay: holdup assay; design: key: below the threshold = too weak to quantify, mostly under pKd 3.1 to 4; conditions: plain residues with an end cap or a label only (N-terminal biotin on a linker: ado-ado)
Sequence (Q8NI35 238-335): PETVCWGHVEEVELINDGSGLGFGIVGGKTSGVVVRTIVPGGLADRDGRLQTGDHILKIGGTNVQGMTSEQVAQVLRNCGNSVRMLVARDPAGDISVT

Binder	pKd
PRAEAEDSFL [PDGFRB, P09619]	below the threshold
FNSYSLTGYV [CLDN2, P57739]	below the threshold

molecular target: NHERF4_1, Q86UT5-2; assay: holdup assay; design: key: below the threshold = too weak to quantify, mostly under pKd 3.1 to 4; conditions: plain residues with an end cap or a label only (N-terminal biotin on a linker: ado-ado)
Sequence (Q86UT5 other isoform, or with tags, fused parts or gaps): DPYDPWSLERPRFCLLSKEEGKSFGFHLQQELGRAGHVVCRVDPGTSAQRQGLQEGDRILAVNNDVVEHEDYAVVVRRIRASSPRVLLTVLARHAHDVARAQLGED

Binder	pKd
PRAEAEDSFL [PDGFRB, P09619]	3.89
FNSYSLTGYV [CLDN2, P57739]	3.9

molecular target: MAGI3_2, Q5TCQ9; assay: holdup assay; design: key: below the threshold = too weak to quantify, mostly under pKd 3.1 to 4; conditions: plain residues with an end cap or a label only (N-terminal biotin on a linker: ado-ado)
Sequence (Q5TCQ9 398-503): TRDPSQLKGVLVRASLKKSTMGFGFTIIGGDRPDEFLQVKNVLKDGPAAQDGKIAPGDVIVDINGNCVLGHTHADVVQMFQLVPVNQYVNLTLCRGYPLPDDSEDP

Binder	pKd
PRAEAEDSFL [PDGFRB, P09619]	below the threshold
FNSYSLTGYV [CLDN2, P57739]	4.21

molecular target: GRID2IP_1, A4D2P6; assay: holdup assay; design: key: below the threshold = too weak to quantify, mostly under pKd 3.1 to 4; conditions: plain residues with an end cap or a label only (N-terminal biotin on a linker: ado-ado)
Sequence (A4D2P6 1-87): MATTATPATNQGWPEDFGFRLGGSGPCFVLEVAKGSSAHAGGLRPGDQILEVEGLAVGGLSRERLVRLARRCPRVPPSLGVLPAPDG

Binder	pKd
PRAEAEDSFL [PDGFRB, P09619]	below the threshold
FNSYSLTGYV [CLDN2, P57739]	below the threshold

molecular target: DLG2_2, Q15700; assay: holdup assay; design: key: below the threshold = too weak to quantify, mostly under pKd 3.1 to 4; conditions: plain residues with an end cap or a label only (N-terminal biotin on a linker: ado-ado)
Sequence (Q15700 189-283): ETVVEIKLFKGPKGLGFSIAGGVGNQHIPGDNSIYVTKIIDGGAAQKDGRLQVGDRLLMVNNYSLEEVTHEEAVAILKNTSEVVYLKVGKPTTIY

Binder	pKd
PRAEAEDSFL [PDGFRB, P09619]	below the threshold
FNSYSLTGYV [CLDN2, P57739]	below the threshold

molecular target: T6, ARHGAP21, Q5T5U3; assay: holdup assay; design: key: below the threshold = too weak to quantify, mostly under pKd 3.1 to 4; conditions: plain residues with an end cap or a label only (N-terminal biotin on a linker: ado-ado)
T6 sequence (Q5T5U3 45-169, limits assumed, looked up): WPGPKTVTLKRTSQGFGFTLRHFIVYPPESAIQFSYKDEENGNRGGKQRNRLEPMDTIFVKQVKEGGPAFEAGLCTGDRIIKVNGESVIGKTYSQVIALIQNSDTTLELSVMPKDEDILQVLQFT

Binder	pKd
PRAEAEDSFL [PDGFRB, P09619]	4
FNSYSLTGYV [CLDN2, P57739]	3.94

molecular target: T7, FRMPD1, Q5SYB0; assay: holdup assay; design: key: below the threshold = too weak to quantify, mostly under pKd 3.1 to 4; conditions: plain residues with an end cap or a label only (N-terminal biotin on a linker: ado-ado)
T7 sequence (Q5SYB0 52-145, limits assumed, looked up): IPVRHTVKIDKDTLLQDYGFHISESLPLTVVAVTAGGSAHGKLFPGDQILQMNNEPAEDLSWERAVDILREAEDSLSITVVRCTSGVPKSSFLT

Binder	pKd
PRAEAEDSFL [PDGFRB, P09619]	below the threshold
FNSYSLTGYV [CLDN2, P57739]	below the threshold

molecular target: T8, LIN7C, Q9NUP9; assay: holdup assay; design: key: below the threshold = too weak to quantify, mostly under pKd 3.1 to 4; conditions: plain residues with an end cap or a label only (N-terminal biotin on a linker: ado-ado)
T8 sequence (Q9NUP9 88-185, limits assumed, looked up): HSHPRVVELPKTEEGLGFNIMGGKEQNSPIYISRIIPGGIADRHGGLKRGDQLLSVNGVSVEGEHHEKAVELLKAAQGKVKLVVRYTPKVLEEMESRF

Binder	pKd
PRAEAEDSFL [PDGFRB, P09619]	below the threshold
FNSYSLTGYV [CLDN2, P57739]	below the threshold

molecular target: T9, APBA1_1, Q02410; assay: holdup assay; design: key: below the threshold = too weak to quantify, mostly under pKd 3.1 to 4; conditions: plain residues with an end cap or a label only (N-terminal biotin on a linker: ado-ado)
T9 sequence (Q02410 651-752, limits assumed, looked up): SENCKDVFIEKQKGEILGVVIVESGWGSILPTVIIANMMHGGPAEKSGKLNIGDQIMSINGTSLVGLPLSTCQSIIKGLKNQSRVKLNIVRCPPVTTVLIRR

Binder	pKd
PRAEAEDSFL [PDGFRB, P09619]	3.68
FNSYSLTGYV [CLDN2, P57739]	below the threshold

molecular target: MAGI2_3, Q86UL8; assay: holdup assay; design: key: below the threshold = too weak to quantify, mostly under pKd 3.1 to 4; conditions: plain residues with an end cap or a label only (N-terminal biotin on a linker: ado-ado)
Sequence (Q86UL8 600-682): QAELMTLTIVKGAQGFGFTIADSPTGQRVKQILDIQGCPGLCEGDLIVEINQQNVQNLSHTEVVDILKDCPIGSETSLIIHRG

Binder	pKd
PRAEAEDSFL [PDGFRB, P09619]	3.55
FNSYSLTGYV [CLDN2, P57739]	3.63

molecular target: T10, SHANK1, Q9Y566; assay: holdup assay; design: key: below the threshold = too weak to quantify, mostly under pKd 3.1 to 4; conditions: plain residues with an end cap or a label only (N-terminal biotin on a linker: ado-ado)
T10 sequence (Q9Y566 658-767, limits assumed, looked up): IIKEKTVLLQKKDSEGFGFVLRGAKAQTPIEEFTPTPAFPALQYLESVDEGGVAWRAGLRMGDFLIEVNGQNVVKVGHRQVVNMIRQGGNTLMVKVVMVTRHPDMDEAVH

Binder	pKd
PRAEAEDSFL [PDGFRB, P09619]	3.51
FNSYSLTGYV [CLDN2, P57739]	below the threshold

molecular target: T11, RAPGEF6, Q8TEU7; assay: holdup assay; design: key: below the threshold = too weak to quantify, mostly under pKd 3.1 to 4; conditions: plain residues with an end cap or a label only (N-terminal biotin on a linker: ado-ado)
T11 sequence (Q8TEU7 525-625, limits assumed, looked up): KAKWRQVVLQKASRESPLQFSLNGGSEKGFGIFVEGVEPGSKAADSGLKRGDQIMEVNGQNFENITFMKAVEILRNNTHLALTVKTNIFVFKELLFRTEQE

Binder	pKd
PRAEAEDSFL [PDGFRB, P09619]	below the threshold
FNSYSLTGYV [CLDN2, P57739]	below the threshold

molecular target: Inadl_8, Q8NI35; assay: holdup assay; design: key: below the threshold = too weak to quantify, mostly under pKd 3.1 to 4; conditions: plain residues with an end cap or a label only (N-terminal biotin on a linker: ado-ado)
Sequence (Q8NI35 1425-1530): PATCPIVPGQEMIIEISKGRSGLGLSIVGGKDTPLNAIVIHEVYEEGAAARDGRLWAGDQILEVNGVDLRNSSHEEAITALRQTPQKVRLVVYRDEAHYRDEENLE

Binder	pKd
PRAEAEDSFL [PDGFRB, P09619]	below the threshold
FNSYSLTGYV [CLDN2, P57739]	4.27

molecular target: FRMPD2_1, Q68DX3; assay: holdup assay; design: key: below the threshold = too weak to quantify, mostly under pKd 3.1 to 4; conditions: plain residues with an end cap or a label only (N-terminal biotin on a linker: ado-ado)
Sequence (Q68DX3 770-861): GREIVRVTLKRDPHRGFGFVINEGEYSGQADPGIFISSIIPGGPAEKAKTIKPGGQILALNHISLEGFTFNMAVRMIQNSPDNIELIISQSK

Binder	pKd
PRAEAEDSFL [PDGFRB, P09619]	below the threshold
FNSYSLTGYV [CLDN2, P57739]	3.49
